± gives the uncertainty stated by the source.
B1: Bromodomain adjacent to zinc finger domain protein 2B, residues 1927 to 1982; numbered along this chain, Q9UIF8 (parent)
chain: KSIMKVYCQICRKGDNEELLLLCDGCDKGCHTYCHRPKITTIPDGDWFCPACIAKA

Variants of: B1
Experiment: abundance fitness (aPCA) (normalised: wild type 0, dead -1); higher = more abundant; growth selection in yeast, the domain comes from the species named
Conditions: Homo sapiens
For KSIMKVYCQICRKGDNEELLLLCDGCDKGCNTYCHRPKITTIPDGDWFCPACIAKA, the abundance fitness was -0.553 ± 0.14. In the case of KSIMKVYCQICRKGDNEELLLLCDGCDKGCPTYCHRPKITTIPDGDWFCPACIAKA, the abundance fitness is reported as -0.556 ± 0.1. KSIMKVYCQICRKGDNEELLLLCDGCDKGCGTYCHRPKITTIPDGDWFCPACIAKA showed an abundance fitness of -0.471 ± 0.063. KSIMKVYCQICRKGDNEELLLLCDGCDKGCRTYCHRPKITTIPDGDWFCPACIAKA showed an abundance fitness of -0.601 ± 0.069. With KSIMKVYCQICRKGDNEELLLLCDGCDKGCYTYCHRPKITTIPDGDWFCPACIAKA the abundance fitness was -0.573 ± 0.1. KSIMKVYCQICRKGDNEELLLLCDGCDKGCVTYCHRPKITTIPDGDWFCPACIAKA gave an abundance fitness of -0.624 ± 0.073. KSIMKVYCQICRKGDNEELLLLCDGCDKGCETYCHRPKITTIPDGDWFCPACIAKA gave an abundance fitness of -0.753 ± 0.12. KSIMKVYCQICRKGDNEELLLLCDGCDKGCWTYCHRPKITTIPDGDWFCPACIAKA gave an abundance fitness of -0.856 ± 0.1. KSIMKVYCQICRKGDNEELLLLCDGCDKGCLTYCHRPKITTIPDGDWFCPACIAKA gave an abundance fitness of -0.926 ± 0.1. With KSIMKVYCQICRKGDNEELLLLCDGCDKGCSTYCHRPKITTIPDGDWFCPACIAKA the abundance fitness was -0.639 ± 0.088. KSIMKVYCQICRKGDNEELLLLCDGCDKGCFTYCHRPKITTIPDGDWFCPACIAKA gave an abundance fitness of -0.954 ± 0.2. In the case of KSIMKVYCQICRKGDNEELLLLCDGCDKGCITYCHRPKITTIPDGDWFCPACIAKA, the abundance fitness is reported as -0.817 ± 0.16. KSIMKVYCQICRKGDNEELLLLCDGCDKGCMTYCHRPKITTIPDGDWFCPACIAKA showed an abundance fitness of -0.71 ± 0.11. KSIMKVYCQICRKGDNEELLLLCDGCDKGCHTECHRPKITTIPDGDWFCPACIAKA gave an abundance fitness of -0.058 ± 0.09. Work on KSIMKVYCQICRKGDNEELLLLCDGCDKGCHTHCHRPKITTIPDGDWFCPACIAKA yielded an abundance fitness of -0.111 ± 0.14. For KSIMKVYCQICRKGDNEELLLLCDGCDKGCHTFCHRPKITTIPDGDWFCPACIAKA, the abundance fitness was -0.154 ± 0.17. Variant KSIMKVYCQICRKGDNEELLLLCDGCDKGCHTVCHRPKITTIPDGDWFCPACIAKA has an abundance fitness of -0.178 ± 0.071. In the case of KSIMKVYCQICRKGDNEELLLLCDGCDKGCHTLCHRPKITTIPDGDWFCPACIAKA, the abundance fitness is reported as -0.202 ± 0.07. Work on KSIMKVYCQICRKGDNEELLLLCDGCDKGCHTRCHRPKITTIPDGDWFCPACIAKA yielded an abundance fitness of -0.053 ± 0.069. Work on KSIMKVYCQICRKGDNEELLLLCDGCDKGCHTCCHRPKITTIPDGDWFCPACIAKA yielded an abundance fitness of -0.289 ± 0.13. Work on KSIMKVYCQICRKGDNEELLLLCDGCDKGCHTNCHRPKITTIPDGDWFCPACIAKA yielded an abundance fitness of -0.213 ± 0.16. Work on KSIMKVYCQICRKGDNEELLLLCDGCDKGCHTDCHRPKITTIPDGDWFCPACIAKA yielded an abundance fitness of -0.123 ± 0.11. In the case of KSIMKVYCQICRKGDNEELLLLCDGCDKGCHTKCHRPKITTIPDGDWFCPACIAKA, the abundance fitness is reported as -0.123 ± 0.1. With KSIMKVYCQICRKGDNEELLLLCDGCDKGCHTTCHRPKITTIPDGDWFCPACIAKA the abundance fitness was 0.089 ± 0.1. In the case of KSIMKVYCQICRKGDNEELLLLCDGCDKGCHTSCHRPKITTIPDGDWFCPACIAKA, the abundance fitness is reported as -0.086 ± 0.077. Work on KSIMKVYCQICRKGDNEELLLLCDGCDKGCHTICHRPKITTIPDGDWFCPACIAKA yielded an abundance fitness of -0.223 ± 0.18. Work on KSIMKVYCQICRKGDNEELLLLCDGCDKGCHTACHRPKITTIPDGDWFCPACIAKA yielded an abundance fitness of -0.105 ± 0.074. KSIMKVYCQICRKGDNEELLLLCDGCDKGCHTPCHRPKITTIPDGDWFCPACIAKA showed an abundance fitness of -0.323 ± 0.09. For KSIMKVYCQICRKGDNEELLLLCDGCDKGCHTWCHRPKITTIPDGDWFCPACIAKA, the abundance fitness was -0.178 ± 0.094. With KSIMKVYCQICRKGDNEELLLLCDGCDKGCHQYCHRPKITTIPDGDWFCPACIAKA the abundance fitness was -0.131 ± 0.12. KSIMKVYCQICRKGDNEELLLLCDGCDKGCHLYCHRPKITTIPDGDWFCPACIAKA showed an abundance fitness of 0.026 ± 0.079. Work on KSIMKVYCQICRKGDNEELLLLCDGCDKGCHSYCHRPKITTIPDGDWFCPACIAKA yielded an abundance fitness of 0.052 ± 0.091. Variant KSIMKVYCQICRKGDNEELLLLCDGCDKGCHEYCHRPKITTIPDGDWFCPACIAKA has an abundance fitness of -0.27 ± 0.097. KSIMKVYCQICRKGDNEELLLLCDGCDKGCHYYCHRPKITTIPDGDWFCPACIAKA gave an abundance fitness of -0.019 ± 0.17. KSIMKVYCQICRKGDNEELLLLCDGCDKGCHAYCHRPKITTIPDGDWFCPACIAKA gave an abundance fitness of -0.065 ± 0.075. With KSIMKVYCQICRKGDNEELLLLCDGCDKGCHKYCHRPKITTIPDGDWFCPACIAKA the abundance fitness was -0.156 ± 0.1. Work on KSIMKVYCQICRKGDNEELLLLCDGCDKGCHWYCHRPKITTIPDGDWFCPACIAKA yielded an abundance fitness of -0.141 ± 0.096. For KSIMKVYCQICRKGDNEELLLLCDGCDKGCHCYCHRPKITTIPDGDWFCPACIAKA, the abundance fitness was -0.333 ± 0.11. Variant KSIMKVYCQICRKGDNEELLLLCDGCDKGCHMYCHRPKITTIPDGDWFCPACIAKA has an abundance fitness of -0.048 ± 0.1. For KSIMKVYCQICRKGDNEELLLLCDGCDKGCHFYCHRPKITTIPDGDWFCPACIAKA, the abundance fitness was -0.235 ± 0.14. In the case of KSIMKVYCQICRKGDNEELLLLCDGCDKGCHIYCHRPKITTIPDGDWFCPACIAKA, the abundance fitness is reported as 0.004 ± 0.11. For KSIMKVYCQICRKGDNEELLLLCDGCDKGCHVYCHRPKITTIPDGDWFCPACIAKA, the abundance fitness was -0.053 ± 0.079. With KSIMKVYCQICRKGDNEELLLLCDGCDKGCHRYCHRPKITTIPDGDWFCPACIAKA the abundance fitness was -0.078 ± 0.071. In the case of KSIMKVYCQICRKGDNEELLLLCDGCDKGCHHYCHRPKITTIPDGDWFCPACIAKA, the abundance fitness is reported as -0.111 ± 0.16. Variant KSIMKVYCQICRKGDNEELLLLCDGCDKGCHPYCHRPKITTIPDGDWFCPACIAKA has an abundance fitness of -0.271 ± 0.11. With KSIMKVYCQICRKGDNEELLLLCDGCDKGCHNYCHRPKITTIPDGDWFCPACIAKA the abundance fitness was -0.133 ± 0.2. With KSIMKVYCQICRKGDNEELLLLCDGCDKGCHGYCHRPKITTIPDGDWFCPACIAKA the abundance fitness was -0.118 ± 0.064.

Reference: the Human Domainome abundance scans (Beltran et al. 2025)
